Reference: patent US11312773B2, “Anti-PD-L1 antibody” (Fuso Pharmaceutical Industries, Ltd., priority 2016, dated 2022)

How the values were obtained:
[1] = test system: oral melanoma; test: Clinical trials in dogs with oral melanoma (Clinical Trials 1, 3, 4); type: in vivo, dog
Experimental: Briefly, tumor tissue samples fixed with formaldehyde and embedded in paraffin were sliced into 4 μm thick sections with a microtome, attached to and dried on silane-coated slide glass (Matsunami Glass) and deparaffinized with xylene/alcohol. While the resultant sections were soaked in citrate buffer [citric acid (Wako Pure Chemical) 0.37 g, trisodium citrate dihydrate (Kishida Chemical) 2.4 g, distilled water 1000 ml], antigen retrieval treatment was performed for 10 min with microwave, followed by staining using a Nichirei automatic immuno-staining device. As pretreatment, sample sections were soaked in 0.3% hydrogen peroxide-containing methanol solution at room temperature for 15 min and washed with PBS. Then, anti-bovine PD-L1 monoclonal antibody was added and reaction was conducted at room temperature for 30 min. After washing with PBS, histofine simple stain MAX-PO (Rat) (Nichirei Bioscience) was added and reaction was carried at room temperature for 30 min, followed by coloring with 3,3′-diaminobenzidine tetrahydrocholride and observation with a light microscope. Dogs with oral melanoma or undifferentiated sarcoma in which tumor cells were PD-L1 positive were used in the following inoculation test (clinical trial).
With respect to the rat-canine chimeric anti-PD-L1 antibody c4G12 to be inoculated into dogs in the clinical trial, the culture supernatant obtained by the procedures described in 2.8 above was purified by affinity chromatography using MabSelect SuRe LX (GE Healthcare) and then by hydroxyapatite chromatography using BioScale CHT20-I prepacked column (Bio-Rad) in order to remove contaminants and polymeric proteins. Aggregate-containing fractions were further purified by anion exchange chromatography using HiScreen Q-Sepharose HP prepacked column (GE Healthcare).
(1) Safety Test: The established rat-canine chimeric anti-PD-L1 antibody c4G12 was administered intravenously into a dog (beagle, spayed female, 13-year-old, about 10 kg in body weight) at 2 mg/kg, every 2 weeks, 3 times in total. […] (2) Clinical Trial 1: The established rat-canine chimeric anti-PD-L1 antibody c4G12 was administered intravenously into a PD-L1 positive dog with relapsed oral melanoma (FIG. 9A) (miniature dachshund, male, 11-year-old, about 7.5 kg in body weight) at 2 mg/kg or 5 mg/kg, every 2 weeks, 22 times in total.

[2] = target: T1, canine PD-1/PD-L1 binding (Canis lupus familiaris, UniProt A0A8I3P7C4); test: Canine PD-1/PD-L1 binding inhibition ELISA (cPD-1-Ig immobilized, biotinylated cPD-L1-Ig); conditions: antibody 0, 2.5, 5 and 10 μg/ml
T1 construct: made in house; host or cells: Expi293F
T1 sequence (A0A8I3P7C4 19-237): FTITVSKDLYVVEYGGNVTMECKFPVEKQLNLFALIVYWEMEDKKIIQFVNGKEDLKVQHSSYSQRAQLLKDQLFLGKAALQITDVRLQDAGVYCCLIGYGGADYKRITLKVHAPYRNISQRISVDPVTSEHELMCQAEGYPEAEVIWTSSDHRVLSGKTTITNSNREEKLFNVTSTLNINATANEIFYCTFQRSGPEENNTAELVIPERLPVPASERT
Experimental: Briefly, canine PD-1-Ig (prepared in 2.4 above) was immobilized on flat bottomed 96-well plates and blocked with 1% BSA and 0.05% Tween 20-containing PBS. […] The binding of cPD-L1-Ig to cPD-1-Ig was measured by color reaction using Neutravidin-HRP (Thermo Fisher Scientific) and TMB one component substrate (Bethyl Laboratories).
Briefly, heavy chain and light chain variable region genes were identified from hybridomas producing rat anti-bovine PD-L1 monoclonal antibodies 4G12 and 6G7. Further, the heavy chain and light chain variable region genes of the above rat antibodies were linked to the constant region of heavy chain IgG4 and the constant region of light chain Lambda of a known canine antibody, respectively, to prepare nucleotide sequences, followed by codon optimization (SEQ ID NOS: 9 and 10 (amino acid sequences), SEQ ID NOS: 19 and 20 (nucleotide sequences after codon optimization). Then, synthesis of genes was performed so that NotI restriction enzyme recognition site. KOZAK sequence, chimeric antibody's light chain sequence, poly-A addition signal sequence (PABGH), promoter sequence (PCMV), SacI restriction enzyme recognition site, intron sequence (INRBG), KOZAK sequence, chimeric antibody's heavy chain sequence and XbaI restriction enzyme recognition site would be located in this order. […]

[3] = test system: canine CD80/PD-L1 binding; test: Canine CD80/PD-L1 binding inhibition ELISA (cCD80-Ig immobilized, cPD-L1-Ig); conditions: antibody 0, 2.5, 5 and 10 μg/ml
Experimental: Using the canine PD-1-Ig, PD-L1-Ig and CD80-Ig (described above), anti-PD-L1 antibody was tested for its ability to inhibit canine PD-1/PD-L1 binding and CD80/PD-L1 binding. Briefly, canine PD-1-Ig or CD80-Ig was immobilized on flat-bottom 96-well plates.

[4] = test system: canine PBMCs; test: Canine immune cell activation: SEB-stimulated PBMCs, cytokine ELISA and EdU uptake; type: cell-based; conditions: SEB stimulation

B1: c4G12: rat-canine chimeric anti-PD-L1 antibody, 4G12 variable regions, canine IgG-D/Lambda constant regions; light chain SEQ ID NO: 9, heavy chain SEQ ID NO: 10 (antibody)
heavy: MGWSQIILFLVAAATCVHSQVQLQQSGAELVKPGSSVKISCKASGYTFTSNFMHWVKQQPGNGLEWIGWIYPEYGNTKYNQKFDGKATLTADKSSSTAYMQLSSLTSEDSAVYFCASEEAVISLVYWGQGTLVTVSSASTTAPSVFPLAPSCGSTSGSTVALACLVSGYFPEPVTVSWNSGSLTSGVHTFPSVLQSSGLYSLSSTVTVPSSRWPSETFTCNVVHPASNTKVDKPVPKESTCKCISPCPVPESLGGPSVFIFPPKPKDILRITRTPEITCVVLDLGREDPEVQISWFVDGKEVHTAKTQPREQQFNSTYRVVSVLPIEHQDWLTGKEFKCRVNHIGLPSPIERTISKARGQAHQPSVYVLPPSPKELSSSDTVTLTCLIKDFFPPEIDVEWQSNGQPEPESKYHTTAPQLDEDGSYFLYSKLSVDKSRWQQGDTFTCAVMHEALQNHYTDLSLSHSPGK
light: MESQTHVLISLLLSVSGTYGDIAITQSPSSVAVSVGETVTLSCKSSQSLLYSENQKDYLGWYQQKPGQTPKPLIYWATNRHTGVPDRFTGSGSGTDFTLIISSVQAEDLADYYCGQYLVYPFTFGPGTKLELKQPKASPSVTLFPPSSEELGANKATLVCLISDFYPSGVTVAWKASGSPVTQGVETTKPSKQSNNKYAASSYLSLTPDKWKSHSSFSCLVTHEGSTVEKKVAPAECS
modifications: chimeric H chain; chimeric L chain
- Criterion of PR (30% or more reduction in longest tumor diameter vs baseline) ([1]; Clinical Trial 1): satisfied at weeks 16-20 and at week 34 and thereafter
- Metastases to lymph nodes or the lung ([1]; Clinical Trial 1, observation period of 44 weeks): no metastases to lymph nodes or the lung were observed
- Pulmonary metastatic lesions at week 18 ([1]; Clinical Trial 3, primary lesion removed by surgery, 2 or 5 mg/kg i.v. every 2 weeks, 9 times): a plurality of pulmonary metastatic lesions disappeared
- Tumor size during observation period ([1]; Clinical Trial 4, 4 dogs with pulmonary metastasis, 2 or 5 mg/kg i.v. every 2 weeks): no clear reduction in tumor size
- Inhibitory activity against canine PD-1/PD-L1 binding [2]: reduced the amounts of binding
- Inhibitory activity against canine CD80/PD-L1 binding [3]: reduced the amounts of binding
- IFN-γ production from canine PBMCs ([4]; 3 days, ELISA): increased
- IL-2 production from canine PBMCs ([4]; 3 days, ELISA): increased
- EdU uptake in canine CD4+ and CD8+ lymphocytes (cell proliferation) ([4]; EdU added at day 2, flow cytometry): enhanced
